# Assay: label from the status in PepcDB records
row,Sequence,protein production
1,MPDLMHSELTMSGPEQSLLAGALLGAGLPADAHRHLELAGRDYQSEALAEQHLREAHLLAPDHAAVLIGLYRFYFYKGRLGEALEVAQACLCKAARDNGLASDWRKVRRGDAEFSSYSAVLPRFYLFALKAYAYLQMRLGQLDEGHAAVEKLLELDPTDKVGAAVLLDVWRRIGLEHHHHHH,not failed
2,MPECRNCGATLREEYRFCPMCATPQTDEASRRLNQYIEQRATKRQASGGTASSNGAENDGTLRGRLQYAAGYVAIVLGLATVTAVAGVFFLLAGLFLLPPIHGRIESAVGRRLGPAPTAGVAGVLAAFGLVVFVFL,failed
3,MPEIHQSIAQHYHERTKYDPETIASKSQRLDWAKQPVPFKEYKIGSAIDLKPYLQETPEVFVNDTNGQWWQRLSRLLFRSYGLTARMPSMGNTVYLRAAPSAGGLYPAEVYVVSRGTPLLSPGLYNYQCRTHSLIHYWESDVWQSLQEACFWHPALESTQLAIIVTAVFYRSAWRYEDRAYRRICLDTGHLLGNIELSAAITDYRPHLIGGFIDEAVNDLLYIDPLQEGAIAVLPLADLLDIQQNISPGCTALPSATETNYPQVPDGELLKYFHHHTQISASITGKLNLPTVIQEKSLEDKYNFPFCLKISTVSAPIYWGENLSDLEITMHKRRSTRAYNGEELTFDELKALLDFTYQPQNYIDQSLDNSPDYFDLNLIETFIAVCGVQGLEAGCYYYAPKAQELRQIRFKNFRRELHFLCLGQELGRDAAAVIFHTSDLKSAIAQYGDRVYRYLHMDAGHLGQRLNLAAIQLNLGVSGIGGFFDDQVNEVLGIPNDEAVIYITTLGRPR,not failed
4,MPEILINYKTNREDYKRQSKYCNICMRRYKSVKKNVIILALMIVFVFVFGTVAFHLIEGWNLFDSFFFTLITVSTVGYSIPENLSQAGKVIASILISAGVTIVLYGFTSVTSMIVEGHIGEYFKSRRMRKMIDRLKDHFIVVGAGRTGRHTTLEIMKAKKPFVVIDQSEEAIARLKDFLGEEFPYVVGDATEEEILMKAGVERARSLVVTLPDDAKSTFVVLTAKSLNPNLEIVSRVSDMKALSKLVYAGADKVIATSELAGVRLAQMALNPTTISFLDILSFGEESFRIEEVVIPPESPVANKTLGEINLAKRAGTIVIAIRRGGEVIFNPTGDTKILPEDRLMVVGKSDHFEKLHRLIEEG,failed
5,MPEISPYVTKTEVQLMMAGLDYRKTNGSRDTAPKGQLPWIVDAAQAIADSTFIRVHIERKYDVDLDFGLTGRERAQAWAIERMIENQLGWVSTYFRFLEPANFERGPARAFDQAPGHLRDELRQGLREAVAANIRAVGVGRHLREEVAWLGGLSLRALDELLEDKAYLMRDAYPVGVDATAFAMLAAIMTPFFDSPLRRQAERYPRLVAYVGRMMERFYPAHPWGLRQAA,failed
6,MPEITESERAYHLRKMKTRMQRVDVTGDGFISREDYELIAVRIAKIAKLSAEKAEETRQEFLRVADQLGLAPGVRISVEEAAVNATDSLLKMKGEEKAMAVIQSLIMYDCIDTDKDGYVSLPEFKAFLQAVGPDLTDDKAITCFNTLDFNKNGQISRDEFLVTVNDFLFGLEETALANAFYGDLVD,not failed
7,MPEKPTEDARFYGRRKGKPLRATRQRLLDTMLPALTLPLAGLGEGERLDPRGLFPRPVDQLWLEIGFGGGEHLVAQAAAHPEVGLIGSEVFAYGVGKALSQIDETGVDNIRLWPEDVRQVLPALPDGCLQRLFVLFPDPWPKRRHARRRMIQPARLDDFARLLADGGELRVASDDMGYVRWTLMHVTAHPAFRWTAQGPTDWRERPADWVETRYEAKALQAGRKPAYLIFRRRPRAADPGTLAEAPAGEGADNNP,failed
8,MPELILKPCEPVRSALKQDVAALEAPPTGGNVDKSATTSNSVTPATSAAPSPAPASEKGEDKDKDSEKEKDKTSAEKSEVKQEQEAEEDKKPGDVKQENPVEEAAGDTKPSDAEVKTEVAKTEPKEETKDPEVKEEPKTEEKEKEKVDDKKPIPPTTVIDDDDDDVMIVKEDGELEKPSASSPKDQKAVAAATSAATGATGK,failed
9,MPEQTYMYAYVTLPHHDQRERYTQKCYRDGRRIVLASYDLMGSERFSFKEKLRKSMKGMNESAERWVSEVRQGENLNSIDNYYRLYKGKI,failed
10,MPEVIFNGPAGRLEGRYQPSKEKSAPIAIILHPHPQFGGTMNNQIVYQLFYLFQKRGFTTLRFNFRSIGRSQGEFDHGAGELSDAASALDWVQSLHPDSKSCWVAGYSFGAWIGMQLLMRRPEIEGFMSIAPQPNTYDFSFLAPCPSSGLIINGDADKVAPEKDVNGLVEKLKTQKGILITHRTLPGANHFFNGKVDELMGECEDYLDRRLNGELVPEPAAKRIR,not failed
11,MPFAIGQRWLSESENALGLGVITALDQRTVTIYFPAADETRIYAMAQAPLSRIVFSKGETLSHQAGWQGEILDVQNMNGLLFYLVKNPQDEDVIVQERDISPIISFSQAKDRLFSAQI,failed
12,MPFCPEEFYCRITQNIESLNNIAKIQHAANTDYLTDLANRRAFFRSAESRIKEYINKKVPYCLAMIDVDFFKKVNDTYGHDSGDQVLKVIALYMRKHFGAGLTARLGGEEFAVLLHGLDADYLHNKLDDFRREIAVSSIPAGDTSISITLSLGVVFDSEDELSKQMNEADNALYAAKENGRNQIVVFGAELDDLEHHHHHH,failed
13,MPFGLKSSQSIDDKFMSITQMKNLIHYVKKNDALSHLCIYILIITGSRFKPVQHLRYEDLNFKKSCIHLNDTKNKYSKRNVKVRIKDLEYIQSVINKHPINQNGYIFHNFINFISYSAINDVLVRFCLKYKYDKYTLKSLRHTHCSYLLAKGISIQYISKRLGHADIHTTLKIYSHLIKEFEDSENSLIEKNLNDLFSDLEHHHHHH,not failed
14,MPFKEYDHDFIDKNKKASSSVRLALLLSVLIIIFNLLFFKHRDFQEQLHNNPGSYTDLIALVFLFFILSCTSKISLNHTSALSIRLGLHVWICSATFDFMDEFIYQPKLVGYYVEDMLRIIGMFGVGFGVYTLIQQINNKYVEARIQSFSDELTQLPNRRFFINELKKLEAKTPYLFIIDIDNFKVINDKYGHTKGDEILSKFGHILSRFDNSEVVATRIGGEEFAIILYAGTQDRAEKLAREVLKNANKIIIKNMHHLSVSIGAGKKQPQEPTEHFMKRVDVALYQAKNTGKGKVEWALEPKEKTQ,failed
15,MPFLLTLLAFLRVLRRLLKDEKFRALLYITAFTLAIGTFFYHSVEGWDWLDSLYFSVITLTTVGYGDFTPKTNIGKFFTIIYIFIGLGILVAFVTPIGEYIVDRRLDRIQEREQKKEIPENEFDFSGVIGKLRGKK,failed
16,MPFLYRLASLLIALLVLPVQAAEMRVALLRTSGVETLDALTVDGGSWVRRVPLSHTAVLIEHHAATLLFDTGLGRDIDAQFRADMPWWAAPLFAYQKVVPARDQLDAAGIRVDRILLSHAHWDHASGLVDFPEVPVWAPYEEIAFSRIATPPAAFPSQFRHGVRWQPYSFDPRPFMGFDESLDLFGDGRLVLVPLPGHTPGSVGLFVTLDSGRRLFFSGDTSWRLEGVEGPRQKFFAGRALVDRDPARTLAQLAKIRLLLRSDPRLSVIPAHDARVQAALGYFPHWLE,failed
17,MPFSISGRKGSEMMAKLDELKQKLTAKQIQAAYLLVENELMESNNEEKRTQDEMANELGINRTTLWEWRTKNQDFIAFKSEVADSFLAEKREQVYSKLMQLILGPQPSVKAMQLYMQRFGLLTDKKVIEGDLGNATRTNAEIEEQLQKLKKLTGE,not failed
18,MPFSWLKPIDYARIFVGWASIFIIPLITLPSIIELALIVAVILFCAFGVVKMAERLAHILGDPFGSLILTLSIVIIEVILICAVMLGPADSTTAGRDSVMAVSMIIMGLVVGLCLLIGGLRHGSMPHNGVGTPTYLVLIATFSVIAFAVPAFRGEYSTGQALVISTLTAVVYGFFLFRQMGAQAGEFQEVEVAEKADDAAKWEVPFRGLILIITVLPIVLLSHDMATVMDEVLASLGAPVAMAGLIIATIVFLPETITSLKAAWTGEIQRVSNLAHGAQVSTVGLTIPAVLVIGVITGQDVVLGETPINLLLLGTTIAVTAIAFSSKKVSAVHGSVLLMLFGVYMMSMFA,failed
19,MPFTLHLRSRLPSAIRSLILQKKPNIRNTSSMAGELRPASLVVLPRSLAPAFERFCQVNTGPLPLLGQSEPEKRMLPPQGAISETRMGHPQFWKYEFGACTGSLASLEQYSEQLKDMVAFFLGCSFSLEEALEKAGLPRRDPAGHSQAGAYKTTVPCVTHAGFCCPLVVTMRPIPKDKLEGLVRACCSLGGEQGQPVHMGDPELLGIKELSKPAYGDAMVCPPGEVPVFWPSPLTSLGAVSSCETPLAFASIPGCTVMTDLKDAKAPPGCLTPERIPEVHHISQDPLHYSIASVSASQKIRELESMIGIDPGNRGIGHLLCKDELLKASLSLSHARSVLITTGFPTHFNHEPPEETDGPPGAVALVAFLQALEKEVAIIVDQRAWNLHQKIVEDAVEQGVLKTQIPILTYQGGSVEAAQAFLCKNGDPQTPRFDHLVAIERAGRAADGNYYNARKMNIKHLVDPIDDLFLAAKKIPGISSTGVGDGGNELGMGKVKEAVRRHIRHGDVIACDVEADFAVIAGVSNWGGYALACALYILYSCAVHSQYLRKAVGPSRAPGDQAWTQALPSVIKEEKMLGILVQHKVRSGVSGIVGMEVDGLPFHNTHAEMIQKLVDVTTAQV,failed
20,MPFTPVDWAILGIVAISALISLKRGFVKEALSLTTWIIAGVVAWMFGAGLSQYLVNYIETPSARVIASCTILFVATLLVGAMVNFLIGELIRVTGLSGTDRFLGMVFGAARGGLLVVVAVGLLSLGPVQQDQWWQQSRLVPQFLIVADWSKNLILGMSSKWLASGISVPADLPFKEQILPPTLPQDVLGKSSSTK,failed
21,MPFVAVATCLSPLIICYPQNRTMECDLLMIKIEKVINKNDLKAFIAFPSSLYPDDPNWIPPLFIERNEHLSAKNPGTDHIIWQAWVAKKAGQIVGRITAQIDTLHRERYGKDTGHFGMIDAIDDPQVFAALFGAAEAWLKSQGASKISGPFSLNINQESGLLIEGFDTPPCAMMPHGKPWYAAHIEQLGYHKGIDLLAWWMQRTDLTFSPALKKLMDQVRKKVTIRCINRQRFAEEMQILREIFNSGWQHNWGFVPFTEHEFATMGDQLKYLVPDDMIYIAEIDSAPCAFIVGLPNINEAIADLNGSLFPFGWAKLLWRLKVSGVRTARVPLMGVRDEYQFSRIGPVIALLLIEALRDPFARRKIDALEMSWILETNTGMNNMLERIGAEPYKRYRLYEKQI,failed
22,MPGAVDFKERISRQRPHDRETYGHAGNTDLQDIVYQLESDRGRIVNSAAVRRLQQKTQVFPLERNAAVRSRLTHSLEVQQTGRFIVRTLFRQLGPRAAEVGLDGLEGALESLVEMACLMHDVGNPPFGHFGEYAINDWFERNLDALFERRIPPGQGDGLLQQRMLTDLKHFEGNAQAIRLVVKLLRLNLTYTQTAGLLKYVRPAYEPKPDKAAANHYLNKKPGFYLSEEAFVDELRRVLGMRPGTRHPVAYIMEAADDISYCLADIEDSVEKGILDIRQLADLLVKKFAVHHSPDAPIPGDADNMSFQRMVDYSLEKAEREPINKVSEFFIRLRVKMIHPLVQHAAQQFIDNFEAVHAGTLGRALMEDGSLPHAIVQTFKDVAMEWVFCHPEVETLELQGYRIIQGLLDFYAPLLRLPAEEFQALAEGRQAAAPHPQLLVRRLPSQQIKAYLEAMKGVAEDPLQRQWEFYHRCRMLQDFVSGMTDQHAQDEYRALSA,failed

# From a protein production outcome set (Wang et al. 2014)
